# Experimental data: patent US20180049457A1, “ENZYMATIC SYNTHESIS OF SOLUBLE GLUCAN FIBER” (E I DU PONT DE NEMOURS AND COMPANY, priority 2014, published 2018)
# Numbering of substitutions follows the chain as printed.
# B1: GTF4336T6: T6 C-terminal truncation of GTF4336, SEQ ID NO: 146, strain SG1309 (protein)
# chain: INGKQYYVNSDGSVRKNFVFEQDGKSYYFDAETGALATKSQDEFSTEPIKATVDFSSGNQLYKNDDKSLDQLDTFITADAWYRPKSILKDGKTWTASTEADKRPLLMVWWPDKSTQVNYLNYMQNQGLGAGSFSTNSSQESLDQAAKAVQTKIEERIAREGNTNWLRTSIDQFIKTQPGWNSSTENSSYDHLQGGQLLFNNSKGDTGNRTSHANSDYRLLNRTPTNQTGTRKYFKDNSIGGLEFLLANDIDNSNPAVQAEQLNWLHFMMNIGSIMANDPTANFDGLRVDALDNVDADLLQIASDYFKAAYGVDKSEANAIKHLSYLEAWSANDPYYNKDTKGAQLPIDNALRNALTNLLMRDKNTRMQLGDMTAFINSSLNPRGANDKNGERMANYIFTRAHDTEAQTIIQRIIRDRINPNLFGYNFTRDEIKKAFEIYNEDIDKAHKTYASYNLPSVYALMLTNKDSVTRVYYGDLYREDGHYMAKKTPYFDAIDTLLRARIKYVAGGQDMEVKKVGNDGLLTSVRYGKGANNRTDLGTSETRTQGMGVIMTNNYDFRLGSNETVTMNMGRAHRNQLYRPLLLTTKDGIATYFNDSDVPKNLLKRTDWNGNLTFNANDVFGVENVQVSGYLGVWVPVGAKANQDARTQPSNRANSDGQVYKSSAALDSQVMYEAFSNFQAFADDQPELYMNRVLAKNTDLLKAWGVTSVGLPPQYVSSKDGTFLDSTIDNGYAFDDRYDMALSQNNKYGSLEDLLNVLRALHKDGIQAIADWVPDQIYNLPGKEVVNATRVNGYGYHQQGYQIVDQAYVANTRTDGTDYQGKYGGAFLDELKAKYPSIFNRVQISNGKQLPTNEKITKWSAKYFNGTNILGRGINYVLRDDKTNQYFNTSANSQLLPTPLRDTGAITSTQVFQRRGQDVYFLRDNQAVKNEFVQDGNGNWYYFGADGKMTKGAQTINKKDYYFFDNGIQLRNALRRANNGYTYYYGLDGAMVKNAFVDFDDKRKQVRAFTTQG
# modifications: T6 C-terminal truncation of GTF4336
# B2: GTF4991T1: T1 C-terminal truncation of GTF4991, SEQ ID NO: 148, strain SG1310 (protein)
# chain: INGKQYYVNSDGSVRKNFVFEQDGKSYYFDAETGALATKSQDEFSTEPIKATVDFSSGNQLYKNDDKSLDQLDTFITADAWYRPKSILKDGKTWTASTEADKRPLLMVWWPDKSTQVNYLNYMQNQGLGAGSFSTNSSQESLDQAAKAVQTKIEERIAREGNTNWLRTSIDQFIKTQPGWNSSTENSSYDHLQGGQLLFNNSKGDTGNRTSHANSDYRLLNRTPTNQTGTRKYFKDNSIGGLEFLLANDIDNSNPAVQAEQLNWLHFMMNIGSIMANDPTANFDGLRVDALDNVDADLLQIASDYFKAAYGVDKSEANAIKHLSYLEAWSANDPYYNKDTKGAQLPIDNALRNALTNLLMRDKNTRMQLGDMTAFINSSLNPRGANDKNGERMANYIFTRAHDTEAQTIIQRIIRDRINPNLFGYNFTRDEIKKAFEIYNEDIDKAHKTYASYNLPSVYALMLTNKDSVTRVYYGDLYREDGHYMAKKTPYFDAIDTLLRARIKYVAGGQDMEVKKVGNDGLLTSVRYGKGANNRTDLGTSETRTQGMGVIMTNNYDFRLGSNETVTMNMGRAHRNQLYRPLLLTTKDGIATYLNDSDVPKNLLKRTDWNGNLTFNANDVFGVENVQVSGYLGVWVPYGAKANQDARTQPSNRANSDGQVYKSSAALDSQVMYEAFSNFQAFADDQPELYMNRVLAKNTDLLKAWGITSVGLPPQYVSSKDGTFLDSIIDNGYAFDDRYDMALSQNNKYGSLEDLLNVLRALHKDGIQAIADWVPDQIYNLPGKEVVNATRVNGYGYHQQGYQIVDQAYVANTRTDGTDYQGKYGGAFLDELKAKYPSIFNRVQISNGKQLPTNEKITKWSAKYFNGTNILGRGINFVLRDDKTNQYFNTSANSQLLPTPLRDTGAIT
# modifications: T1 C-terminal truncation of GTF4491
# B3: GTF4336T2: T2 C-terminal truncation of GTF4336, SEQ ID NO: 144, strain SG1308 (protein)
# chain: INGKQYYVNSDGSVRKNFVFEQDGKSYYFDAETGALATKSQDEFSTEPIKATVDFSSGNQLYKNDDKSLDQLDTFITADAWYRPKSILKDGKTWTASTEADKRPLLMVWWPDKSTQVNYLNYMQNQGLGAGSFSTNSSQESLDQAAKAVQTKIEERIAREGNTNWLRTSIDQFIKTQPGWNSSTENSSYDHLQGGQLLFNNSKGDTGNRTSHANSDYRLLNRTPTNQTGTRKYFKDNSIGGLEFLLANDIDNSNPAVQAEQLNWLHFMMNIGSIMANDPTANFDGLRVDALDNVDADLLQIASDYFKAAYGVDKSEANAIKHLSYLEAWSANDPYYNKDTKGAQLPIDNALRNALTNLLMRDKNTRMQLGDMTAFINSSLNPRGANDKNGERMANYIFTRAHDTEAQTIIQRIIRDRINPNLFGYNFTRDEIKKAFEIYNEDIDKAHKTYASYNLPSVYALMLTNKDSVTRVYYGDLYREDGHYMAKKTPYFDAIDTLLRARIKYVAGGQDMEVKKVGNDGLLTSVRYGKGANNRTDLGTSETRTQGMGVIMTNNYDFRLGSNETVTMNMGRAHRNQLYRPLLLTTKDGIATYFNDSDVPKNLLKRTDWNGNLTFNANDVFGVENVQVSGYLGVWVPVGAKANQDARTQPSNRANSDGQVYKSSAALDSQVMYEAFSNFQAFADDQPELYMNRVLAKNTDLLKAWGVTSVGLPPQYVSSKDGTFLDSTIDNGYAFDDRYDMALSQNNKYGSLEDLLNVLRALHKDGIQAIADWVPDQIYNLPGKEVVNATRVNGYGYHQQGYQIVDQAYVANTRTDGTDYQGKYGGAFLDELKAKYPSIFNRVQISNGKQLPTNEKITKWSAKYFNGTNILGRGINYVLRDDKTNQYFNTSANSQLLPTPLRDTGAITSTQVFQRRGQDVYFLRDNQAVKNEFVQDGNGNWYYFGADG
# modifications: T2 C-terminal truncation of GTF4336
# B4: GTF4991T2: T2 C-terminal truncation of GTF4991, SEQ ID NO: 150, strain SG1311 (protein)
# chain: B3 chain with F594L, V638Y, V707I, T728I, Y877F, A928T, A946G
# modifications: T2 C-terminal truncation of GTF4491
# B5: GTF4991T6: T6 C-terminal truncation of GTF4991, SEQ ID NO: 152, strain SG1312 (protein)
# chain: INGKQYYVNSDGSVRKNFVFEQDGKSYYFDAETGALATKSQDEFSTEPIKATVDFSSGNQLYKNDDKSLDQLDTFITADAWYRPKSILKDGKTWTASTEADKRPLLMVWWPDKSTQVNYLNYMQNQGLGAGSFSTNSSQESLDQAAKAVQTKIEERIAREGNTNWLRTSIDQFIKTQPGWNSSTENSSYDHLQGGQLLFNNSKGDTGNRTSHANSDYRLLNRTPTNQTGTRKYFKDNSIGGLEFLLANDIDNSNPAVQAEQLNWLHFMMNIGSIMANDPTANFDGLRVDALDNVDADLLQIASDYFKAAYGVDKSEANAIKHLSYLEAWSANDPYYNKDTKGAQLPIDNALRNALTNLLMRDKNTRMQLGDMTAFINSSLNPRGANDKNGERMANYIFTRAHDTEAQTIIQRIIRDRINPNLFGYNFTRDEIKKAFEIYNEDIDKAHKTYASYNLPSVYALMLTNKDSVTRVYYGDLYREDGHYMAKKTPYFDAIDTLLRARIKYVAGGQDMEVKKVGNDGLLTSVRYGKGANNRTDLGTSETRTQGMGVIMTNNYDFRLGSNETVTMNMGRAHRNQLYRPLLLTTKDGIATYLNDSDVPKNLLKRTDWNGNLTFNANDVFGVENVQVSGYLGVWVPYGAKANQDARTQPSNRANSDGQVYKSSAALDSQVMYEAFSNFQAFADDQPELYMNRVLAKNTDLLKAWGITSVGLPPQYVSSKDGTFLDSIIDNGYAFDDRYDMALSQNNKYGSLEDLLNVLRALHKDGIQAIADWVPDQIYNLPGKEVVNATRVNGYGYHQQGYQIVDQAYVANTRTDGTDYQGKYGGAFLDELKAKYPSIFNRVQISNGKQLPTNEKITKWSAKYFNGTNILGRGINFVLRDDKTNQYFNTSANSQLLPTPLRDTGAITSTQVFQRRGQDVYFLRDNQTVKNEFVQDGNGNWYYFGGDGKMTKGAQNINSKDYYFFDNGVQLRNALRRASNGYTYYYGLDGAMVKNAFVDFDDKHKQVRAFTTQG
# modifications: T6 C-terminal truncation of GTF4491
# Assay: GTF activity of strains (PAHBAH assay)
# Format: biochemical
# Conditions: Experiment Number 1; enzyme expressed in B. subtilis host
# Outline: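 Glucosyltransferase (GTF) activity of the bacterial strains was measured with the PAHBAH assay. The enzymes tested were truncated GTF variants produced in a Bacillus subtilis expression host. Measurements were split across three separate experiments, and each activity value is reported together with the experiment it came from because results varied slightly between experiments.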
row,Molecule,GTF activity of strains: Acitivity [U/mL]
1,B1,28.9
2,B2,23.1
3,B3,11.5
4,B4,4.9
5,B5,1.7
